The target in this assay is T1, MAGEA3 peptide on HLA-A*01:01 (human).
T1 peptide: EVDPIGHLY
Description: multimer staining.

B1:  (TCR, V domains shown)
Valpha: KQEVTQIPAALSVPEGENLVLNCSFTDSAIYNLQWFRQDPGKGLTSLLLIQSSQREQTSGRLNASLDKSSGRSTLYIAASQPGDSATYLCAVDNYGQNFVFGPGTRLSVLP
Vbeta: RPQVTQNPRYLITVTGKKLTVTCSQNMNHEYMSWYRQDPGLGLRQIYYSMNVEVTDKGDVPEGYKVSRKEKRNFPLILESPSPNQTSLYFCASSTTGSSPLHFGNGTRLTVT
B1: the binding result was “recognises”.

The values above are taken from US20220213196A1 (published 2022).
